The target in assay [1] is human 4-1BB on T cells (human) (UniProt Q07011).
Assay [2] shares this target. The assay is described as follows: flow cytometry, normal (non-activated) human CD4+ T cells. (In flow cytometry, cells or beads pass a laser one at a time.)
Assay [3] shares this target. The assay is described as follows: flow cytometry, normal (non-activated) human CD8+ T cells.
Assay [4] has the same target. The assay is described as follows: flow cytometry, PBL CD4+ T cells, rheumatoid arthritis patient 2.
Assay [5] shares this target. As to the kind of experiment: flow cytometry, PBL CD8+ T cells, rheumatoid arthritis patient 2.
For assay [6] the target is unchanged. As to the kind of experiment: flow cytometry, human CD4+ T cells activated with Con A for 24 hours.
Assay [7] has the same target. As to the kind of experiment: flow cytometry, human CD8+ T cells activated with Con A for 24 hours.
Assay [8] shares this target. The assay is described as follows: flow cytometry, PBL CD4+ T cells, rheumatoid arthritis patient.
For assay [9] the target is unchanged. The assay is described as follows: flow cytometry, PBL CD8+ T cells, rheumatoid arthritis patient.
Assay [10] has the same target. The assay is described as follows: flow cytometry, synovial lymphocyte CD4+ T cells, rheumatoid arthritis patient 2.
The target is the same in assay [11]. As to the kind of experiment: flow cytometry, synovial lymphocyte CD8+ T cells, rheumatoid arthritis patient 2.
Assay [12] shares this target. As to the kind of experiment: flow cytometry, synovial lymphocyte CD4+ T cells, rheumatoid arthritis patient.
Assay [13] shares this target. The assay is described as follows: flow cytometry, synovial lymphocyte CD8+ T cells, rheumatoid arthritis patient.

In turn, monoclonal antibody 4B4-1-1 registered a suppression rate (%) of one way-allogeneic mixed lymphocyte reaction (3H-thymidine uptake) in [1] of 67%. The figures for the % of CD4+ T cells showing positive responses in assay [2] and in assay [6] were 17% and 72%, respectively. Also, the % of CD8+ T cells showing positive responses is 36% in [3] and 89% in assay [7]. Further, the % of T Cells Showing Reactivity with 4B4-1-1 in [4] stood at 20%; in [5], 43.5%; in [8], 2.2%; in assay [9], 12.7%; in assay [10], 38%; in assay [11] it was 42.4%. The values for the % of T Cells Showing Reactivity with 4B4-1-1 in assay [12] and in assay [13] were 11.3% and 68.1%, respectively.

The values above are taken from patent publication US5928893.
